Measurements reported in article PMC9729196, “An in silico method to assess antibody fragment polyreactivity” (Nature Communications, 2022).
Numbering of substitutions follows the chain as printed. In names and notes the source's numbering stands. Like-named read-outs stand apart in the source and are kept apart here. Values belong to the binder of their own block, whether it stands above or below them.

Columns and labels:
[1] = molecular target: insulin (Homo sapiens (assumed; ), UniProt P01308)
[2] = molecular target: T1, wild-type human FLAG-AT1R (angiotensin II type 1 receptor) (Homo sapiens, UniProt P30556); test: radioligand binding; competition of nanobody with 2 nM [3H]-olmesartan on membranes of FLAG-AT1R cells; 50 mM Tris pH 7.4, 12.5 mM MgCl2, 150 mM NaCl, 0.2% BSA, 90 min, room temperature; Ki from a one-site competition model; settings: one partner purified
T1 construct: angiotensin II type 1 receptor (AT1R), human, wild type; Cells were gated with the M1 anti-FLAG antibody; also called angiotensin II type I receptor; source: Expi293F TetR cells, stably transfected (pCDNA Zeo-TetO), induced with doxycycline; on cells, or in cell membranes prepared from them

[3] = molecular target: T2, wild-type human FLAG-AT1R (angiotensin II type 1 receptor) (human, UniProt P30556 1-359); test: FACS
T2 chain: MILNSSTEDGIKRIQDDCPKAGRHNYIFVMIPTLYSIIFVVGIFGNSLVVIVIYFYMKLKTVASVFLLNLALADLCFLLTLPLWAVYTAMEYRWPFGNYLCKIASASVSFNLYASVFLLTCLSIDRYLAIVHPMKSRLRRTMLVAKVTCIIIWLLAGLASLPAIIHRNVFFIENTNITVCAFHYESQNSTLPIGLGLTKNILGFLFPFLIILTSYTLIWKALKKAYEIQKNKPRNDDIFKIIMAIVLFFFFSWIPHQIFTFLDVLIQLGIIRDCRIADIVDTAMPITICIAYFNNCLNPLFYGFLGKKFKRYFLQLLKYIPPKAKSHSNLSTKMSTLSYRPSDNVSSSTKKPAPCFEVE

[4] = molecular target: T2, wild-type human FLAG-AT1R (angiotensin …)
[5] = molecular target: T1, wild-type human FLAG-AT1R (angiotensin …); test: flow cytometry on cells; Expi293F cells expressing FLAG-AT1R stained with 20 nM nanobody (C-terminal V5), 1 h, 4 °C, 20 mM Hepes pH 7.4, 150 mM NaCl, 0.1% BSA; detected with Alexa 647 anti-V5; gated for M1 anti-FLAG-positive singlets; settings: one partner purified
[6] = molecular target: T2, wild-type human FLAG-AT1R (angiotensin …); test: [3H]-olmesartan competition, membranes

Sequence of insulin (F8WCM5 25-54, chain 1 of 2): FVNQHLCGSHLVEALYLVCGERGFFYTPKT
Sequence of insulin (P01308 90-110, chain 2 of 2): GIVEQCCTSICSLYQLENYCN

B2: AT118i4h32 G26D^27 T57I^65 (VHH)
VHH: EVQLVESGGGLVQPGGSLRLSCAASDYIYRRYRMGWYRQAPGKGREFVAAISGGSSINYADSVKGRFTISRDNSKNTVYLQMNSLRAEDTAVYYCAAYRIVSDPRVYWGQGTQVTVSS
notes: as the chain of m1 with the two stated substitutions; its own crystal structure is one of PDB 7T83 and 7T84 (crystallised construct: N-terminal Met-Ala, C-terminal His tag); the superscripts are IMGT numbers; also called G26D^27 T57I^65 variant; source: E. coli BL21(DE3), pET26b, purified (Protein A, Ni-NTA); not shown: V5, C-terminal, kept; His6, C-terminal, kept
binding result [2]: binds | Kd [3]: 54 nM | Ki [4]: 79.4 nM

B4: AT118i4h32 T57I^65 (VHH)
VHH: B2 VHH with D26G
Ki [4]: 64.6 nM

B5: AT118i4h32 G26D^27 (VHH)
VHH: B2 VHH with I57T
Ki [4]: 70.8 nM

Next, values leading:

binding result [1]: binds
B1: F10' (VHH)
VHH: QVQLVESGGGLVQAGGSLRLSCAASGSTFWWYAMGWYRQAPGKERELVATISRGGSTNYADSVKGRFTISRDNAKNTVYLQMNSLKPEDTAVYYCARKTRDIRLDYWGQGTQVTVSS

binding result [5]: binds | Ki [6]: 72.4 nM | Kd [3]: 58.3 nM
B3: AT118i4h32 (VHH)
VHH: B2 VHH with D26G, I57T
notes: coordinates of the AT118i4h32 structures are deposited as PDB 7T83 and 7T84 (the crystallised construct has an N-terminal Met-Ala and a C-terminal His tag); humanised form of AT118 (eleven substitutions towards human VH3-23); Nanobody antagonist of AT1R from a synthetic library, humanised; also called WT AT118i4h32; wild-type nanobody; source: E. coli BL21(DE3), pET26b, purified (Protein A, …)

fold decrease of binding against the wild type [5]: 2 fold
B6: AT118i4h32 T57D^65 (VHH)
VHH: B2 VHH with D26G, I57D
notes: as the chain of m1 with the stated substitution; the superscript is the IMGT number; also called T57D^65 substitution; source: E. coli BL21(DE3), pET26b, purified (Protein A, Ni-NTA); not shown: V5, C-terminal, kept; His6, C-terminal, kept
